B1: Focal adhesion kinase 1 (Gallus gallus (Chicken)), Q00944 (parent)
chain: MAAAYLDPNLNHTPSSSAKTHLGTGMERSPGAMERVLKVFHYFENSSEPTTWASIIRHGDATDVRGIIQKIVDCHKVKNVACYGLRLSHLQSEEVHWLHLDMGVSNVREKFELAHPPEEWKYELRIRYLPKGFLNQFTEDKPTLNFFYQQVKNDYMLEIADQVDQEIALKLGCLEIRRSYGEMRGNALEKKSNYEVLEKDVGLRRFFPKSLLDSVKAKTLRKLIQQTFRQFANLNREESILKFFEILSPVYRFDKECFKCALGSSWIISVELAIGPEEGISYLTDKGANPTHLADFNQVQTIQYSNSEDKDRKGMLQLKIAGAPEPLTVTAPSLTIAENMADLIDGYCRLVNGATQSFIIRPQKEGERALPSIPKLANNEKQGVRSHTVSVSETDDYAEIIDEEDTYTMPSTRDYEIQRERIELGRCIGEGQFGDVHQGIYMSPENPAMAVAIKTCKNCTSDSVREKFLQEALTMRQFDHPHIVKLIGVITENPVWIIMELCTLGELRSFLQVRKFSLDLASLILYAYQLSTALAYLESKRFVHRDIAARNVLVSATDCVKLGDFGLSRYMEDSTYYKASKGKLPIKWMAPESINFRRFTSASDVWMFGVCMWEILMHGVKPFQGVKNNDVIGRIENGERLPMPPNCPPTLYSLMTKCWAYDPSRRPRFTELKAQLSTILEEEKLQQEERMRMESRRQVTVSWDSGGSDEAPPKPSRPGYPSPRSSEGFYPSPQHMVQPNHYQVSGYSGSHGIPAMAGSIYPGQASLLDQTDSWNHRPQEVSAWQPNMEDSGTLDVRGMGQVLPTHLMEERLIRQQQEMEEDQRWLEKEERFLVMKPDVRLSRGSIEREDGGLQGPAGNQHIYQPVGKPDHAAPPKKPPRPGAPHLGSLASLNSPVDSYNEGVKIKPQEISPPPTANLDRSNDKVYENVTGLVKAVIEMSSKIQPAPPEEYVPMVKEVGLALRTLLATVDESLPVLPASTHREIEMAQKLLNSDLAELINKMKLAQQYVMTSLQQEYKKQMLTAAHALAVDAKNLLDVIDQARLKMISQSRPH

Variants of: B1
Conditions: with arp3_bovin ACTR3, P61157

Row | Variant | effect of a mutation on the interaction
1 | Y397F | increasing interaction

— IntAct's records for PubMed 17721515
